Experimental data reported in publication PMC7217966.

Legend:
CsgG (Escherichia coli) = CsgG (Escherichia coli) (UniProt P0AEA2); details: cited from earlier work
CsgG-6xHis (E. coli) = CsgG-6xHis (E. coli) (UniProt P0AEA2); experiment: SPR; Biacore 3000, NTA sensor chip activated with NiSO4; CsgG-His (200 nM) immobilised via the His-tag; N22 peptide injected at 50 μl/min, 20 − 1 nM; 10 mM HEPES, 150 mM NaCl, 0.36 mM DDM, pH 8.0; non-activated reference flow cell; 1:1 binding model

Kd (CsgG-6xHis (E. coli)) [µM]	Substance	Kd (CsgG (Escherichia coli)) [µM]
–	CsgA N6 peptide N6 (from UniProt P28307)	28.3
0.53	CsgA N22 peptide	–
